Each sequence was assayed on Fer (mouse) (assay: phosphorylation enrichment, bacterial display (enrichment ratio); higher = better substrate or ligand; peptides without Tyr show the background).
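Further: 11-residue human phosphosite peptides and single-mutation variants displayed on the E. coli surface, counted by deep sequencing, each peptide's frequency after selection divided by its frequency in the unselected input library; frequency after pTyr selection over input frequency; kinase dosed for 20-30% of maximal phosphorylation in three min.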

| Sequence | phosphorylation enrichment |
| --- | --- |
| SIKDKYLTALY [KCNH2_Y611_V612L] | 0.44 |
| AAGGRYYGLVG [HARS1_Y363_D364Y] | 0.45 |
| SQKRKYIEIDS [SDAD1_Y580] | 0.394 |
| CTTIHSNYMCN [TP53_Y234_Y234S] | 0.44 |
| LEHCQYVTEKV [ALDOB_Y204] | 1.91 |
| SVTCTYSSALN [TP53_Y126_P128S] | 0.534 |
| ADARMYGDLPW [PLP1_Y207_V209D] | 1.43 |
| SSFDIYHLSRE [KIR3DL2_Y253_YF] | 0.788 |
| TLNVRHESVQA [CEACAM7_Y236_Y236H] | 0.374 |
| VDEVLYEDSST [MTHFS_Y197] | 2.56 |
| DDLTDYLMKIL [ACTA1_Y190_R185D] | 0.457 |
| TTGLIYIGSHD [AASDH_Y870] | 0.424 |
| RPQDGFRIVQH [PTPRT_Y1329_Y1329F] | 0.417 |
| EFNLMYDGTKE [IRF6_Y97] | 0.479 |
| GQDLLYEDEDL [PACS1_Y303_F302L] | 2.38 |
| YAFQLYDLDPD [CHP2_Y123_R127P] | 0.916 |
| KKKKQYKDKYL [CASK_Y708] | 0.587 |

| Sequence | phosphorylation enrichment |
| --- | --- |
| QRRFVYFFSFL [PTEN_Y176_YF] | 1.91 |
| HNELFYEEAEH [VANGL1_Y345_YF] | 4.23 |
| DLGIQYKVLKP [CTNNA1_Y177_A179V] | 0.417 |
| SSKILYHIIKG [CDH17_Y489] | 0.383 |
| LYSDHYSPSGR [TMPRSS12_Y23] | 16.8 |
| RLQEDYDHSYY [ESD_Y258_G257D] | 0.572 |
| CNRADYSKLAP [GNE_Y22] | 0.485 |
| IALSKYGRVKW [FGF6_Y186_R191W] | 0.413 |
| LNPLVYTLRNA [OR4C12_Y285_V283L] | 0.76 |
| LSDGPYSSPFE [EPOR_Y485_N487S_YF] | 0.465 |
| CTTFHYNFMCN [TP53_Y234_I232F_YF] | 0.581 |
| VKKKLDEEIDQ [CYP17A1_Y329_Y329D] | 0.422 |
| HICTAYELVLA [DHCR24_Y190] | 8.27 |
| TVFENYVADIK [RHOA_Y42_E47K] | 0.495 |
| GKLIFYDLRGE [KARS1_Y145] | 0.432 |
| RFLERYIYNPE [HLA-DPB1_Y57_R61P] | 0.636 |

These sequences were tested against EPHB1 (UniProt P54762) in the same assay as above.
Sequence of EPHB1 (P54762 whole entry, looked up): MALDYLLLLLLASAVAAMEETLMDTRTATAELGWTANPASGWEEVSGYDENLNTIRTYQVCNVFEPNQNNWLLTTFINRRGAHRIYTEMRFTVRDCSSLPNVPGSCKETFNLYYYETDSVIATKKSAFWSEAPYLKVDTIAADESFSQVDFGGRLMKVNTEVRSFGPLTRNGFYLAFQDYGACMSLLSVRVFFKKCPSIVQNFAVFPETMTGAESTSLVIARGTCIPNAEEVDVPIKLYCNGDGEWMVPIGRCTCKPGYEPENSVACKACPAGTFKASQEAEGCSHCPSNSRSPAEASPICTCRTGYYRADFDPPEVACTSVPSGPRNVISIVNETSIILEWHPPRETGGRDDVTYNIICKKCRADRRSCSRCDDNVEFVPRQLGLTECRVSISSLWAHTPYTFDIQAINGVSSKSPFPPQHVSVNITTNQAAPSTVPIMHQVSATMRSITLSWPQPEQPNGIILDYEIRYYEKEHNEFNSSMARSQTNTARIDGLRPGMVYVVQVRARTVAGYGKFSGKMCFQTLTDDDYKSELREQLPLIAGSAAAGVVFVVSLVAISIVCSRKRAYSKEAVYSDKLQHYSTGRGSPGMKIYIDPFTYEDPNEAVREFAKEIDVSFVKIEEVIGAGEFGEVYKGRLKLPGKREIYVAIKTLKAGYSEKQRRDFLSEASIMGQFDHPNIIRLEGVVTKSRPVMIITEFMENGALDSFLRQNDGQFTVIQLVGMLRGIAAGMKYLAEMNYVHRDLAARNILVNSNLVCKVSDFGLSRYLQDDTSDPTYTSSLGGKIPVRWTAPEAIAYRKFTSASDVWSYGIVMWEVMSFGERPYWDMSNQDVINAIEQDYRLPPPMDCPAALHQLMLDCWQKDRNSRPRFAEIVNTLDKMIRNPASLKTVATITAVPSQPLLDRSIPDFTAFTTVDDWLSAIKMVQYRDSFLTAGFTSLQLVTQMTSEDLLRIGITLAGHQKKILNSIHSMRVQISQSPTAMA

| Sequence | phosphorylation enrichment |
| --- | --- |
| SIKDKYLTALY [KCNH2_Y611_V612L] | 0.456 |
| AAGGRYYGLVG [HARS1_Y363_D364Y] | 0.347 |
| SQKRKYIEIDS [SDAD1_Y580] | 0.463 |
| CTTIHSNYMCN [TP53_Y234_Y234S] | 0.542 |
| LEHCQYVTEKV [ALDOB_Y204] | 1.74 |
| SVTCTYSSALN [TP53_Y126_P128S] | 0.601 |
| ADARMYGDLPW [PLP1_Y207_V209D] | 0.65 |
| SSFDIYHLSRE [KIR3DL2_Y253_YF] | 0.975 |
| TLNVRHESVQA [CEACAM7_Y236_Y236H] | 0.38 |
| VDEVLYEDSST [MTHFS_Y197] | 0.666 |
| DDLTDYLMKIL [ACTA1_Y190_R185D] | 0.476 |
| TTGLIYIGSHD [AASDH_Y870] | 0.686 |
| RPQDGFRIVQH [PTPRT_Y1329_Y1329F] | 0.62 |
| EFNLMYDGTKE [IRF6_Y97] | 0.447 |
| GQDLLYEDEDL [PACS1_Y303_F302L] | 0.812 |
| YAFQLYDLDPD [CHP2_Y123_R127P] | 1.52 |
| KKKKQYKDKYL [CASK_Y708] | 0.53 |

| Sequence | phosphorylation enrichment |
| --- | --- |
| QRRFVYFFSFL [PTEN_Y176_YF] | 0.563 |
| HNELFYEEAEH [VANGL1_Y345_YF] | 0.819 |
| DLGIQYKVLKP [CTNNA1_Y177_A179V] | 0.462 |
| SSKILYHIIKG [CDH17_Y489] | 0.395 |
| LYSDHYSPSGR [TMPRSS12_Y23] | 4.19 |
| RLQEDYDHSYY [ESD_Y258_G257D] | 0.814 |
| CNRADYSKLAP [GNE_Y22] | 0.613 |
| IALSKYGRVKW [FGF6_Y186_R191W] | 0.316 |
| LNPLVYTLRNA [OR4C12_Y285_V283L] | 0.712 |
| LSDGPYSSPFE [EPOR_Y485_N487S_YF] | 0.631 |
| CTTFHYNFMCN [TP53_Y234_I232F_YF] | 0.468 |
| VKKKLDEEIDQ [CYP17A1_Y329_Y329D] | 0.505 |
| HICTAYELVLA [DHCR24_Y190] | 0.891 |
| TVFENYVADIK [RHOA_Y42_E47K] | 0.845 |
| GKLIFYDLRGE [KARS1_Y145] | 0.492 |
| RFLERYIYNPE [HLA-DPB1_Y57_R61P] | 0.755 |
